Test results taken from US9428773B2, “Methods of producing acetoin and 2,3-butanediol using photosynthetic microorganisms” (The Regents of the University of California, priority 2012, dated 2016).

B1: sADH (C. p.): Candida parapsilosis M203011 secondary alcohol dehydrogenase, NADPH, S-installing (SEQ ID NO: 17) (protein, listed as Candida parapsilosis)
chain: MGEIESYCNKELGPLPTKAPTLSKNVLDLFSLKGKVASVTGSSGGIGWAVAEAYAQAGADVAIWYNSHPADEKAEHLQKTYGVHSKAYKCNISDPKSVEETISQQEKDFGTIDVFVANAGVTWTQGPEIDVDNYDSWNKIISVDLNGVYYCSHNIGKIFKKNGKGSLIITSSISGKIVNIPQLQAPYNTAKAACTHLAKSLAIEWAPFARVNTISPGYIDTDITDFASKDMKAKWWQLTPLGREGLTQELVGGYLYLASNASTFTTGSDVVIDGGYTCP
B2: sADH (T. b.): Thermoanaerobacter brockii HTD4 secondary alcohol dehydrogenase, NADPH, R-installing (SEQ ID NO: 23) (protein, listed as Thermoanaerobacter brockii)
chain: MKGFAMLSIGKVGWIEKEKPAPGPFDAIVRPLAVAPCTSDIHTVFEGAIGERHNMILGHEAVGEVVEVGSEVKDFKPGDRVVVPAITPDWRTSEVQRGYHQHSGGMLAGWKFSNVKDGVFGEFFHVNDADMNLAHLPKEIPLEAAVMIPDMMTTGFHGAELADIELGATVAVLGIGPVGLMAVAGAKLRGAGRIIAVGSRPVCVDAAKYYGATDIVNYKDGPIESQIMNLTEGKGVDAAIIAGGNADIMATAVKIVKPGGTIANVNYFGEGEVLPVPRLEWGCGMAHKTIKGGLCPGGRLRMERLIDLVFYKRVDPSKLVTHVFRGFDNIEKAFMLMKDKPKDLIKPVVILA
B3: adh (L. p.): Leuconostoc pseudomesenteroides CHCC 2114 secondary alcohol dehydrogenase, NADPH, S-installing (SEQ ID NO: 19) (protein)
chain: MTKKVAMVTGGAQGIGEAIVRRLSADGFAVAVADLNEAKSKEVATDIEKNGGTAIAVKLDVSDREGFFAAVKEVAEKLGGFDVLVNNAGLGPTTPIDTITPELFDKVYHINVAGDIWGIQAAVEQFKKNGNGGKIINATSQAGVVGNPNLSLYSSTKFAVRGLTQVAARDLAEQNITVNAYAPGIVKTPMMFDIAHEVGKNAGKDDEWGMQTFAKDIALKRLSEPEDVAAAVAFLAGPDSNYITGQTIEVDGGMQFH
modifications: Leuconostoc pseudomesenteroides
B4: sADH (C. b.): Clostridium beijerinckii NRRL B593 secondary alcohol dehydrogenase, NADPH, R-installing (SEQ ID NO: 21) (protein, listed as Clostridium beijerinckii)
chain: MKGFAMLGINKLGWIEKERPVAGSYDAIVRPLAVSPCTSDIHTVFEGALGDRKNMILGHEAVGEVVEVGSEVKDFKPGDRVIVPCTTPDWRSLEVQAGFQQHSNGMLAGWKFSNFKDGVFGEYFHVNDADMNLAILPKDMPLENAVMITDMMTTGFHGAELADIQMGSSVVVIGIGAVGLMGIAGAKLRGAGRIIGVGSRPICVEAAKFYGATDILNYKNGHIVDQVMKLTNGKGVDRVIMAGGGSETLSQAVSMVKPGGIISNINYHGSGDALLIPRVEWGCGMAHKTIKGGLCPGGRLRAEMLRDMVVYNRVDLSKLVTHVYHGFDHIEEALLLMKDKPKDLIKAVVIL

Tests used:
[1] = sADH (ADH) activity in crude cell lysate of E. coli production strains, oxidation of NAD(P)H with acetoin; assay type: biochemical; details: expressed in E. coli, excess substrate, NADPH
Method: (§1) Alcohol dehydrogenase (ADH) activity was determined by measuring the oxidation of NAD(P)H. The reaction mixture contained 50 mM 3-(N-morpholino) propanesulfonic acid (MOPS) pH 7.0, 25 mM acetoin and 0.2 mM NAD(P)H. The consumption of NAD(P)H was monitored at 340 nm. One specific unit of ADH activity corresponds to the oxidation of 1 nmol of NAD(P)H per minute per mg of protein.
The resulting E. coli strains were cultured in modified M9 medium, containing 50 g/L glucose, at 30° C. for 40 h (FIG. 4B). […] The fourth strain, expressing adh (C. b.), maintained a relatively low acetoin concentration (less than 6% of total production) and produced 13.8 g/L total 23BD as a mixture of (R,R)-23BD and meso-23BD stereoisomers forming 74% and 21% of total production respectively (FIG. 4B). The strains expressing adh (T. b.) and adh (C. p.) produced 2.4 g/L and 14.2 g/L 23BD respectively with both isomers formed in roughly equal amounts in each. […] Enzyme activities measured from crude cell lysate isolated during production were high for both sADH (C. p.) and sADH (C. b.), at 265 and 440 nmol min^−1 mg^−1 respectively, when excess substrate was used (FIG. 4B). […] The major 23BD product of each of the adh expressing strains matched the stereochemistry predicted by previous characterization (41-43).

[2] = ADH activity in crude cell lysate of modified S. elongatus strains, oxidation of NAD(P)H with acetoin; assay type: biochemical; details: for ADH enzyme activity in crude cell lysate: expressed in S. elongatus, lysate isolated during production
Method: Enzyme Assays. S. elongatus cells were collected 72 h after induction by centrifugation (4000 g, 5 min, washed in 50 mM potassium phosphate buffer (pH 7.5) and resuspended in the same buffer. Crude extract were prepared with 0.1-mm glass beads and a Mini bead beater (Mini Bead Beater 8 (BioSpec Products, Inc., Bartlesville, Okla.)). The total protein determination was performed by Advanced Protein Assay Reagent from Cytoskeleton, Inc. (Denver, Colo.).
as §1
23BD production was detected in three out of four S. elongatus strains (FIG. 4C). […] The strain expressing adh (T. b.) produced 301 mg/L (R,R)-23BD with trace amounts of meso-23BD but also allowed for accumulation of acetoin (FIG. 4C). The strain expressing adh (C. b.) produced 270 mg/L (R,R)-23BD (major) and undetectable levels of acetoin, indicating high flux through the intermediate. The strain expressing adh (C. p.) produced 65 mg L^−1 23BD, with meso-23BD as the primary product and accumulated toxic levels of acetoin. The remaining S-installing adh (L. p.) was not active in S. elongatus, resulting only in accumulation of acetoin. […] Activity for adh (C. p.) was roughly 5-fold higher again than adh (C. b.), however low production and acetoin accumulation was observed, similar to the result in E. coli. […] The two sADH with highest production and lowest acetoin accumulation were further tested with the stronger ALDC gene alsD (A. h.). Both strains increased production, yielding 568 mg L^−1 from adh (T. b.) and 952 mg L^−1 from adh (C. b.), the latter of which is 3 fold higher than production with alsD (E. a.) over 72 hours (FIG. 4C).

Molecule | sADH enzyme activity in crude cell lysate [1] | fold higher activity than adh (C. b.) ([2]; S. elongatus crude cell lysate) | ADH enzyme activity in crude cell lysate [2] | fold higher activity than adh (T. b.) ([2]; S. elongatus crude cell lysate)
B1 | 265 nmol/min/mg | roughly 5 fold | – | –
B2 | Relatively low activity | – | 6.3 nmol min^−1 mg ^−1 | –
B3 | – | – | could not be detected | –
B4 | 440 nmol/min/mg | – | 56.3 nmol min^−1 mg ^−1 | roughly 10 fold
